# Assay results: the supplement of paper PMC9876800
# Test system: peptide library, one residue held at a place counted from the S/T acceptor
# Assay: relative phosphorylation of the sub-library (ratio to the mean residue at this position); higher = residue favoured
# Conditions: human
# In short: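 Relative sub-library phosphorylation is a ratio to the mean residue at the same position. Purified recombinant kinases were incubated under kinase-specific conditions with biotinylated degenerate peptide sub-libraries, each fixing one residue at one position around a central Ser/Thr, using 50 μM peptide and 50 μM ATP spiked with γ-32P-ATP for 90 min. Spots captured on streptavidin membranes were phosphorimaged and quantified by densitometry.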
# MAPK11, construct: Full length, sequence (Q15759 whole entry, looked up): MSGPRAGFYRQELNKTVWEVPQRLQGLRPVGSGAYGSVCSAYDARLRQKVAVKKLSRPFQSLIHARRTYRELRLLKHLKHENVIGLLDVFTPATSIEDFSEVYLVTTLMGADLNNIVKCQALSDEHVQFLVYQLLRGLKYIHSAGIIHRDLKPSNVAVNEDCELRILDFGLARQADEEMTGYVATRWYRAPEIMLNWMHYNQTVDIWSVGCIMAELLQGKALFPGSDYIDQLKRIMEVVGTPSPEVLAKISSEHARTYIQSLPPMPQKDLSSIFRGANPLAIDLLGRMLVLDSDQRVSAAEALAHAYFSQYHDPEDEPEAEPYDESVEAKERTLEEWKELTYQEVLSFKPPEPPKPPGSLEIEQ
substance,measurement,setting,value
"MAPK11, construct: Full length (from UniProt Q15759)",relative phosphorylation,"A fixed, at +1",1.65
same,relative phosphorylation,"A fixed, at +2",1.14
same,relative phosphorylation,"A fixed, at +3",1.35
same,relative phosphorylation,"A fixed, at +4",0.935
same,relative phosphorylation,"A fixed, at -1",1.22
same,relative phosphorylation,"A fixed, at -2",0.953
same,relative phosphorylation,"A fixed, at -3",1.26
same,relative phosphorylation,"A fixed, at -4",1.14
same,relative phosphorylation,"A fixed, at -5",1.12
same,relative phosphorylation,"D fixed, at +1",0.136
same,relative phosphorylation,"D fixed, at +2",0.985
same,relative phosphorylation,"D fixed, at +3",0.947
same,relative phosphorylation,"D fixed, at +4",0.919
same,relative phosphorylation,"D fixed, at -1",0.745
same,relative phosphorylation,"D fixed, at -2",0.501
same,relative phosphorylation,"D fixed, at -3",0.917
same,relative phosphorylation,"D fixed, at -4",1.25
same,relative phosphorylation,"D fixed, at -5",1.06
same,relative phosphorylation,"E fixed, at +1",0.12
same,relative phosphorylation,"E fixed, at +2",0.81
same,relative phosphorylation,"E fixed, at +3",0.98
same,relative phosphorylation,"E fixed, at +4",0.818
same,relative phosphorylation,"E fixed, at -1",0.765
same,relative phosphorylation,"E fixed, at -2",0.338
same,relative phosphorylation,"E fixed, at -3",1.03
same,relative phosphorylation,"E fixed, at -4",1.13
same,relative phosphorylation,"E fixed, at -5",0.921
same,relative phosphorylation,"F fixed, at +1",0.268
same,relative phosphorylation,"F fixed, at +2",0.828
same,relative phosphorylation,"F fixed, at +3",0.913
same,relative phosphorylation,"F fixed, at +4",1.27
same,relative phosphorylation,"F fixed, at -1",0.852
same,relative phosphorylation,"F fixed, at -2",0.614
same,relative phosphorylation,"F fixed, at -3",0.708
same,relative phosphorylation,"F fixed, at -4",0.766
same,relative phosphorylation,"F fixed, at -5",0.944
same,relative phosphorylation,"G fixed, at +1",0.841
same,relative phosphorylation,"G fixed, at +2",1.14
same,relative phosphorylation,"G fixed, at +3",1.08
same,relative phosphorylation,"G fixed, at +4",1.19
same,relative phosphorylation,"G fixed, at -1",1.24
same,relative phosphorylation,"G fixed, at -2",0.73
same,relative phosphorylation,"G fixed, at -3",1.53
same,relative phosphorylation,"G fixed, at -4",1.21
same,relative phosphorylation,"G fixed, at -5",1.22
same,relative phosphorylation,"H fixed, at +1",0.227
same,relative phosphorylation,"H fixed, at +2",1.1
same,relative phosphorylation,"H fixed, at +3",0.959
same,relative phosphorylation,"H fixed, at +4",1.15
same,relative phosphorylation,"H fixed, at -1",1.21
same,relative phosphorylation,"H fixed, at -2",0.572
same,relative phosphorylation,"H fixed, at -3",0.902
same,relative phosphorylation,"H fixed, at -4",0.941
same,relative phosphorylation,"H fixed, at -5",1.12
same,relative phosphorylation,"I fixed, at +1",0.304
same,relative phosphorylation,"I fixed, at +2",1.15
same,relative phosphorylation,"I fixed, at +3",1.11
same,relative phosphorylation,"I fixed, at +4",1.05
same,relative phosphorylation,"I fixed, at -1",0.676
same,relative phosphorylation,"I fixed, at -2",1.16
same,relative phosphorylation,"I fixed, at -3",1.04
same,relative phosphorylation,"I fixed, at -4",0.885
same,relative phosphorylation,"I fixed, at -5",0.88
same,relative phosphorylation,"K fixed, at +1",0.209
same,relative phosphorylation,"K fixed, at +2",1.12
same,relative phosphorylation,"K fixed, at +3",0.583
same,relative phosphorylation,"K fixed, at +4",0.818
same,relative phosphorylation,"K fixed, at -1",0.842
same,relative phosphorylation,"K fixed, at -2",0.461
same,relative phosphorylation,"K fixed, at -3",0.722
same,relative phosphorylation,"K fixed, at -4",0.961
same,relative phosphorylation,"K fixed, at -5",0.921
same,relative phosphorylation,"L fixed, at +1",0.337
same,relative phosphorylation,"L fixed, at +2",1.04
same,relative phosphorylation,"L fixed, at +3",1.01
same,relative phosphorylation,"L fixed, at +4",1.14
same,relative phosphorylation,"L fixed, at -1",1.37
same,relative phosphorylation,"L fixed, at -2",1.46
same,relative phosphorylation,"L fixed, at -3",1.09
same,relative phosphorylation,"L fixed, at -4",0.982
same,relative phosphorylation,"L fixed, at -5",1.08
same,relative phosphorylation,"M fixed, at +1",0.26
same,relative phosphorylation,"M fixed, at +2",0.951
same,relative phosphorylation,"M fixed, at +3",0.852
same,relative phosphorylation,"M fixed, at +4",1.08
same,relative phosphorylation,"M fixed, at -1",1.67
same,relative phosphorylation,"M fixed, at -2",1.22
same,relative phosphorylation,"M fixed, at -3",0.988
same,relative phosphorylation,"M fixed, at -4",1.06
same,relative phosphorylation,"M fixed, at -5",0.941
same,relative phosphorylation,"N fixed, at +1",0.141
same,relative phosphorylation,"N fixed, at +2",0.874
same,relative phosphorylation,"N fixed, at +3",0.632
same,relative phosphorylation,"N fixed, at +4",0.764
same,relative phosphorylation,"N fixed, at -1",0.705
same,relative phosphorylation,"N fixed, at -2",0.585
same,relative phosphorylation,"N fixed, at -3",0.886
same,relative phosphorylation,"N fixed, at -4",0.952
same,relative phosphorylation,"N fixed, at -5",0.956
same,relative phosphorylation,"P fixed, at +1",11.4
same,relative phosphorylation,"P fixed, at +2",0.762
same,relative phosphorylation,"P fixed, at +3",1.95
same,relative phosphorylation,"P fixed, at +4",1.01
same,relative phosphorylation,"P fixed, at -1",1.39
same,relative phosphorylation,"P fixed, at -2",5.14
same,relative phosphorylation,"P fixed, at -3",1.61
same,relative phosphorylation,"P fixed, at -4",1.29
same,relative phosphorylation,"P fixed, at -5",1.37
same,relative phosphorylation,"Q fixed, at +1",0.185
same,relative phosphorylation,"Q fixed, at +2",0.942
same,relative phosphorylation,"Q fixed, at +3",0.71
same,relative phosphorylation,"Q fixed, at +4",0.859
same,relative phosphorylation,"Q fixed, at -1",1.26
same,relative phosphorylation,"Q fixed, at -2",0.633
same,relative phosphorylation,"Q fixed, at -3",1.05
same,relative phosphorylation,"Q fixed, at -4",0.94
same,relative phosphorylation,"Q fixed, at -5",0.902
same,relative phosphorylation,"R fixed, at +1",0.206
same,relative phosphorylation,"R fixed, at +2",1.08
same,relative phosphorylation,"R fixed, at +3",0.676
same,relative phosphorylation,"R fixed, at +4",0.871
same,relative phosphorylation,"R fixed, at -1",0.847
same,relative phosphorylation,"R fixed, at -2",0.505
same,relative phosphorylation,"R fixed, at -3",0.835
same,relative phosphorylation,"R fixed, at -4",0.823
same,relative phosphorylation,"R fixed, at -5",0.834
same,relative phosphorylation,"V fixed, at +1",0.289
same,relative phosphorylation,"V fixed, at +2",1.24
same,relative phosphorylation,"V fixed, at +3",1.25
same,relative phosphorylation,"V fixed, at +4",0.995
same,relative phosphorylation,"V fixed, at -1",0.749
same,relative phosphorylation,"V fixed, at -2",1.16
same,relative phosphorylation,"V fixed, at -3",0.954
same,relative phosphorylation,"V fixed, at -4",0.896
same,relative phosphorylation,"V fixed, at -5",0.839
same,relative phosphorylation,"W fixed, at +1",0.206
same,relative phosphorylation,"W fixed, at +2",0.792
same,relative phosphorylation,"W fixed, at +3",0.975
same,relative phosphorylation,"W fixed, at +4",1.04
same,relative phosphorylation,"W fixed, at -1",0.618
same,relative phosphorylation,"W fixed, at -2",0.437
same,relative phosphorylation,"W fixed, at -3",0.723
same,relative phosphorylation,"W fixed, at -4",0.946
same,relative phosphorylation,"W fixed, at -5",0.913
same,relative phosphorylation,"Y fixed, at +1",0.2
same,relative phosphorylation,"Y fixed, at +2",1.05
same,relative phosphorylation,"Y fixed, at +3",1.02
same,relative phosphorylation,"Y fixed, at +4",1.1
same,relative phosphorylation,"Y fixed, at -1",0.833
same,relative phosphorylation,"Y fixed, at -2",0.53
same,relative phosphorylation,"Y fixed, at -3",0.748
same,relative phosphorylation,"Y fixed, at -4",0.83
same,relative phosphorylation,"Y fixed, at -5",0.981
same,relative phosphorylation,"pThr fixed, at +1",0.405
same,relative phosphorylation,"pThr fixed, at +2",1.32
same,relative phosphorylation,"pThr fixed, at +3",1.18
same,relative phosphorylation,"pThr fixed, at +4",0.795
same,relative phosphorylation,"pThr fixed, at -1",0.364
same,relative phosphorylation,"pThr fixed, at -2",0.617
same,relative phosphorylation,"pThr fixed, at -3",1.1
same,relative phosphorylation,"pThr fixed, at -4",1.16
same,relative phosphorylation,"pThr fixed, at -5",1.15
same,relative phosphorylation,"pTyr fixed, at +1",0.589
same,relative phosphorylation,"pTyr fixed, at +2",0.741
same,relative phosphorylation,"pTyr fixed, at +3",0.996
same,relative phosphorylation,"pTyr fixed, at +4",0.757
same,relative phosphorylation,"pTyr fixed, at -1",0.653
same,relative phosphorylation,"pTyr fixed, at -2",0.396
same,relative phosphorylation,"pTyr fixed, at -3",0.932
same,relative phosphorylation,"pTyr fixed, at -4",1.04
same,relative phosphorylation,"pTyr fixed, at -5",1.05
